Test results published in article PMC8752837, “Structural basis of BAK activation in mitochondrial apoptosis initiation” (Nature Communications, 2022).

Legend:
[1] = system: BCL2allKO HCT116 cells reconstituted with mC-BAK; test: Endpoint FACS analysis of SYTOX Green positive cells; format: cell-based, human; settings: average, N = 3
Description: We seeded cells in 24-well (100,000 cells/well), 96-well (15,000 cells/well), or 384-well (10,000 cells/well) plates coated with 10 µg/mL fibronectin. After ≥24 h of attachment and recovery, we induced cell death with Dox (up to 1000 ng/mL) and monitored SYTOX Green (25 nM) uptake by Incucyte imaging. This dye marks cells with compromised plasma membrane integrity. mC-BAK expressed before 24 h, which coincided with detectable cell death. We monitored Incucyte imaging for up to 48 h, followed by endpoint FACS analysis to measure the extent of cell death based on SYTOX Green positive cells on FACSCalibur systems (BD Biosciences). As expected, cells with low mCherry fluorescence were refractory to cell death.

[2] = system: bak−/− bax−/− HCT116 cells; test: Apoptosis initiated by actinomycin D and TRAIL + CHX in cells constitutively expressing BAK; format: cell-based, human; settings: constitutive pMX-BAK-IRES-GFP
Excerpt: We enriched for GFP positive cell populations by up to four rounds of sorting. Cells were used in apoptosis assays. […]
and doxycycline (Dox)-inducible mC-BAK. d, Representative i mmunoblot for BID and sypro red staining of BCL2allKO HCT116 cells expressing V74A and D83A mC-BAK and BID from n=2 independent experiments. e, Representative immunoblot of bak-/- bax- […]
from n=2 independent experiments . GFP positive cells were sorted three and four times to achieve similar expression levels. […]
human TRAIL and cycloheximide (CHX).
Data are presented as mean + SD for one representative of n=2 experiments each of n=3 technical replicates. g, Experimental […]
BAK (mC-BAK) monitored for 48 hr by IncuCyte imaging uptake of cell-impermeable dye SYTOX Green. AUC for kinetic traces is included. At 48 hr, we quantified percentage of SYTOX Green +ve cells (%) by fluorescence activated cell sorting (FACS). Data are presented as mean + SD from one of n=3 experiments each of n=3

B1: V74A (1): BAK missense mutant, WT-like; in cells as mCherry fusion (protein)
chain: MASGQGPGPPRQECGEPALPSASEEQVAQDTEEVFRSYVFYRHQQEQEAEGVAAPADPEMVTLPLQPSSTMGQAGRQLAIIGDDINRRYDSEFQTMLQHLQPTAENAYEYFTKIATSLFESGINWGRVVALLGFGYRLALHVYQHGLTGFLGQVTRFVVDFMLHHCIARWIAQRGGWVAALNLGNG
modifications: left off: His6, C-terminal, kept
notes: BAK missense mutant, WT-like; in cells as mCherry fusion
flow cytometry SYTOX Green counts/confluence (48 hr) ([1]; Dox 100 ng/mL): 40.5 | flow cytometry SYTOX Green counts/confluence (48 hr) ([1]; Dox 1000 ng/mL): 46.1667 | response to apoptotic inducers actinomycin D and TRAIL + CHX [2]: respond similarly
